These results are taken from paper PMC12255305, “A transfer RNA methyltransferase with an unusual domain composition catalyzes 2′-O-methylation at position 6 in tRNA” (Nucleic Acids Research, 2025).

In data set [1] the target is SPOUT catalytic domain of TrmTS (lacks NFLD and THUMP domain, residues 2-151) (Thermococcus kodakarensis) (UniProt Q5JGM1). Description: SEC; Superdex 200 10/300, room temperature; 150 ug truncated TrmTS heated at 50°C for 10 min, run in buffer C (50 mM Tris-HCl pH 8.0, 500 mM KCl, 300 mM ammonium sulfate); size standards 29-150 kDa. (In general: SEC sorts molecules by how far they enter the pores of the column.)

Data set [2] addresses T1, TrmTS (TK1257 gene product) (Thermococcus kodakarensis KUW1, UniProt Q5JGM1 1-355).
T1 sequence: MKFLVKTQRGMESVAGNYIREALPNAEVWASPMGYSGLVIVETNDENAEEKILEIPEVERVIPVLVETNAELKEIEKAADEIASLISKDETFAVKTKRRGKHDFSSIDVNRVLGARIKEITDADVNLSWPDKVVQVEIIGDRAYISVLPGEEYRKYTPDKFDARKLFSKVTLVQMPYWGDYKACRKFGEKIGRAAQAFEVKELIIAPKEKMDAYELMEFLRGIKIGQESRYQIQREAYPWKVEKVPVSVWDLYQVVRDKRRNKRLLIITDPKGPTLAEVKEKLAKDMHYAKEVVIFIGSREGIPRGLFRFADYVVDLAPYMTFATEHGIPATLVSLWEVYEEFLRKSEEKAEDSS
Description: competition (inhibition of methylation of wild-type tRNA-Trp transcript); SAM; competitor against wild-type tRNA-Trp transcript; Inhibition assay conditions (buffer, salt, pH, temperature) not given in the material. As to conditions: protein: recombinant; tags: none (untagged; native start and stop codons in pET30a); chain copies: 2; tRNA cloverleaf.

Substrate in the data set “purified protein”: C[S+](CC[C@H](N)C(=O)O)C[C@H]1O[C@@H](n2cnc3c(N)ncnc32)[C@H](O)[C@@H]1O
The data set is described as follows: purified protein. The conditions noted are these: 35 μM T. kodakarensis tRNA-Trp transcript, 3 μM enzyme (not fully steady-state), 5 mM MgCl2, 300 mM KCl, pH 7.6, 75°C, mixture of unlabelled and 3H-labelled compound :1.

Data set [3] deals with the molecule itself. Description: SEC; Superdex 200 10/300, room temperature; 200 ug full-length TrmTS heated at 75°C for 10 min, then run in buffer SEC (50 mM sodium phosphate pH 8.0, 500 mM KCl, 6 mM 2-mercaptoethanol, 5% glycerol); sample buffer also held 0.1% Triton X-100; size standards 29-150 kDa.

As to “SPOUT catalytic domain of TrmTS (lacks NFLD and THUMP domain, residues 2-151) (from UniProt Q5JGM1 152-355) (domain or fragment)”, the stoichiometry N (usually the number of molecules, sites or subunits per partner or assembly) in data set [1] turned out to be 2.

B1: tRNA-Trp C6G-G67C transcript (G6-C67) (structured_RNA)
RNA: GGGGGGGUGGUGUAGCCUGGUCCAUCAUCGCGGGCUCCAGACCCGCGGACCGGGGUUCAAAUCCCCGCCCCCCCACCA
On to B1, for which the IC50 (as a rule, the concentration that inhibits the measured activity by half) in data set [2] was ~30 µM.

B2: TrmTS (TK1257 gene product), full-length wild type (enzyme, Thermococcus kodakarensis, UniProt Q5JGM1 1-355, looked up)
chain: MKFLVKTQRGMESVAGNYIREALPNAEVWASPMGYSGLVIVETNDENAEEKILEIPEVERVIPVLVETNAELKEIEKAADEIASLISKDETFAVKTKRRGKHDFSSIDVNRVLGARIKEITDADVNLSWPDKVVQVEIIGDRAYISVLPGEEYRKYTPDKFDARKLFSKVTLVQMPYWGDYKACRKFGEKIGRAAQAFEVKELIIAPKEKMDAYELMEFLRGIKIGQESRYQIQREAYPWKVEKVPVSVWDLYQVVRDKRRNKRLLIITDPKGPTLAEVKEKLAKDMHYAKEVVIFIGSREGIPRGLFRFADYVVDLAPYMTFATEHGIPATLVSLWEVYEEFLRKSEEKAEDSS
notes: TK1257 gene product (TrmTS), tRNA 2'-O-methyltransferase of Thermococcus kodakarensis strain KUW1, 355 amino acids; NFLD, THUMP, linker and SPOUT domains; gene amplified from the ATG to the stop codons; Cloned between NdeI and BamHI of pET30a with its own stop codons; also called full-length TrmTS; wild-type TrmTS; source: E. coli BL21 (DE3) Rosetta 2, purified (75°C heat step, HiTrap Q HP, …)
Turning to B2, the Km (in general, the substrate concentration at which the rate is half of its maximum) in the data set “purified protein” came out at 23 µM. Moreover, the “stoichiometry N” value in data set [3] is 4.

B3: TrmTS (TK1257 gene product) (Thermococcus kodakarensis KOD1; E301A) (protein)
chain: MKFLVKTQRGMESVAGNYIREALPNAEVWASPMGYSGLVIVETNDENAEEKILEIPEVERVIPVLVETNAELKEIEKAADEIASLISKDETFAVKTKRRGKHDFSSIDVNRVLGARIKEITDADVNLSWPDKVVQVEIIGDRAYISVLPGEEYRKYTPDKFDARKLFSKVTLVQMPYWGDYKACRKFGEKIGRAAQAFEVKELIIAPKEKMDAYELMEFLRGIKIGQESRYQIQREAYPWKVEKVPVSVWDLYQVVRDKRRNKRLLIITDPKGPTLAEVKEKLAKDMHYAKEVVIFIGSRAGIPRGLFRFADYVVDLAPYMTFATEHGIPATLVSLWEVYEEFLRKSEEKAEDSS
On to B3, for which, in the data set “purified protein”, the Km was 21 ± 5.1 µM.

B4: TrmTS (TK1257 gene product) (Thermococcus kodakarensis KOD1; K155A) (protein)
chain: MKFLVKTQRGMESVAGNYIREALPNAEVWASPMGYSGLVIVETNDENAEEKILEIPEVERVIPVLVETNAELKEIEKAADEIASLISKDETFAVKTKRRGKHDFSSIDVNRVLGARIKEITDADVNLSWPDKVVQVEIIGDRAYISVLPGEEYRAYTPDKFDARKLFSKVTLVQMPYWGDYKACRKFGEKIGRAAQAFEVKELIIAPKEKMDAYELMEFLRGIKIGQESRYQIQREAYPWKVEKVPVSVWDLYQVVRDKRRNKRLLIITDPKGPTLAEVKEKLAKDMHYAKEVVIFIGSREGIPRGLFRFADYVVDLAPYMTFATEHGIPATLVSLWEVYEEFLRKSEEKAEDSS
With B4, in “purified protein”, the Km was determined as 44 ± 7.6 µM.
